Measurements taken from US20240360223A1 (DRAGONFLY THERAPEUTICS, published 2024).
Where “and” joins values, the source holds several entries; their conditions need not be identical. Equal entries are not always repeated.

Columns and labels:
[1] = molecular target: T1, human BAFF-R expressed on cells (human, UniProt Q96RJ3 1-184); experiment: flow cytometry, BJAB cells
T1 construct: Cell surface BAFF-R, endogenous on B cell lines and primary B cells or overexpressed on isogenic CHO cells; also called hBAFF-R; hBAFF-R-CHO

human FcRn [2] = molecular target: T2, human FcRn (human, UniProt P55899 24-297; P61769 21-119); experiment: SPR, pH 6.0, steady state; pH 6.0; first replicate
human FcRn [3] = molecular target: T2, human FcRn; experiment: SPR, pH 6.0, steady state, average; pH 6.0; average of four replicates
[4] = molecular target: T3, cynomolgus NKG2D (recombinant mFc-tagged dimer) (cynomolgus, UniProt P61252 78-216); experiment: SPR
T3 construct: also called cyno NKG2D
T3 sequence (looked up): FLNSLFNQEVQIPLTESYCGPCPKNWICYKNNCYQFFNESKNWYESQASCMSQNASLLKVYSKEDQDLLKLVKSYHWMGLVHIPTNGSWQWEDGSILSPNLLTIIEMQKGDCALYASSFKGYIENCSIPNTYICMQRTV
From the text: Two different fits were utilized to obtain the equilibrium affinity data: steady state affinity fit and kinetic fit.

[5] = molecular target: T4, human NKG2D (recombinant mFc-tagged dimer) (human, UniProt P26718 78-216); experiment: SPR, kinetic fit, after 4 weeks at 40 °C
T4 construct: also called hNKG2D
T4 sequence (looked up): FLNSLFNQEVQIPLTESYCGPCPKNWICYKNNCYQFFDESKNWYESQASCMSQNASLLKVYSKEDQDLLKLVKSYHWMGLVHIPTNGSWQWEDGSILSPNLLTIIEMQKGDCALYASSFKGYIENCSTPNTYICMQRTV

[6] = molecular target: T4, human NKG2D (recombinant mFc-tagged …); experiment: SPR, kinetics fit
From the text: (§1) NKG2D is a native dimer, therefore recombinant mFc-tagged NKG2D dimer was used for this experiment. Two different fits were utilized to obtain the equilibrium affinity data: steady state affinity fit and kinetic fit.

[7] = molecular target: T1, human BAFF-R expressed on cells; experiment: flow cytometry, BJAB cells, after 4 weeks at 40 °C
cynomolgus CD16 [8] = molecular target: T5, cynomolgus CD16 (cynomolgus, UniProt Q8SPW2 17-208, limits assumed); experiment: SPR, average
T5 construct: also called Cyno CD16; cynomolgus FcγRIII

human CD16b = molecular target: T6, human CD16b (human, UniProt O75015 17-200, limits assumed); experiment: SPR, steady state, average
T6 construct: also called FcγRIIIb

cynomolgus FcRn [9] = molecular target: T7, cynomolgus FcRn (cynomolgus, UniProt Q8SPV9 24-297; Q8SPW0 21-119); experiment: SPR, pH 6.0, steady state; pH 6.0; fourth replicate
T7 construct: also called Cyno FcRn

cynomolgus CD16 [10] = molecular target: T5, cynomolgus CD16; experiment: SPR
cynomolgus FcRn [11] = molecular target: T7, cynomolgus FcRn; experiment: SPR, pH 6.0, steady state; pH 6.0; second replicate
[12] = molecular target: T4, human NKG2D (recombinant mFc-tagged …); experiment: SPR
From the text: as §1

cynomolgus CD16 [13] = molecular target: T5, cynomolgus CD16; experiment: SPR, kinetic fit; first replicate, kinetic fit
human CD16a V158 [14] = molecular target: T8, human CD16a V158 (human, UniProt P08637 17-208); experiment: SPR, kinetic fit, average
T8 construct: also called hCD16aV; hCD16a V158

[15] = molecular target: T1, human BAFF-R expressed on cells; experiment: cell-based or functional assay
[16] = molecular target: T4, human NKG2D (recombinant mFc-tagged …); experiment: SPR, steady state fit, average
From the text: as §1

[17] = molecular target: T3, cynomolgus NKG2D (recombinant …); experiment: SPR, steady state fit, average
From the text: as §1

recombinant human TACI = molecular target: T9, recombinant human TACI (human, UniProt O14836 2-166, limits assumed); experiment: SPR, immobilized AB1424 F3', analyte 500 nM TACI
T9 sequence (looked up): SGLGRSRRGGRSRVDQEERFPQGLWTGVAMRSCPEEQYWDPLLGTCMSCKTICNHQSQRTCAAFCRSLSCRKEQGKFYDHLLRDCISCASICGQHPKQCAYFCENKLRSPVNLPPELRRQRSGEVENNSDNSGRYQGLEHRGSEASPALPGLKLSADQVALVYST

[18] = molecular target: T10, cynomolgus monkey BAFF-R expressed on cells (cynomolgus monkey); experiment: flow cytometry, CHO-cBAFF-R cells
T10 construct: whole, on cells; also called cBAFF-R; cynoBAFF-R

[19] = molecular target: T1, human BAFF-R expressed on cells; experiment: flow cytometry, RL cells
human CD32a R131 = molecular target: T11, human CD32a R131 (human, UniProt P12318 36-218, limits assumed); experiment: SPR, steady state
T11 construct: also called FcγRIIa R131
T11 sequence (looked up): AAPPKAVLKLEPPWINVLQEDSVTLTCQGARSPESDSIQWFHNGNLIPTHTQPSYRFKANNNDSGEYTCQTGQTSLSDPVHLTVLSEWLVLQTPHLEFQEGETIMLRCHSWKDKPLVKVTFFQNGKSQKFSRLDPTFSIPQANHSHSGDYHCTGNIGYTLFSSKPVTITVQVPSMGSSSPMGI

human CD16a V158 [20] = molecular target: T8, human CD16a V158; experiment: SPR, control

T5 sequence (Q8SPW2 17-208 limits assumed): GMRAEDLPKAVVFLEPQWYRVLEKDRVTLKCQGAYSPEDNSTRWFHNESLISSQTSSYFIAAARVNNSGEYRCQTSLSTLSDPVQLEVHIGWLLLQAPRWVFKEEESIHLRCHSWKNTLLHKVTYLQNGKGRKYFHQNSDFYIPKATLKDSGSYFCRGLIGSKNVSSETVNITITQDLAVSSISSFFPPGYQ
T8 sequence (P08637 17-208 F176V limits assumed): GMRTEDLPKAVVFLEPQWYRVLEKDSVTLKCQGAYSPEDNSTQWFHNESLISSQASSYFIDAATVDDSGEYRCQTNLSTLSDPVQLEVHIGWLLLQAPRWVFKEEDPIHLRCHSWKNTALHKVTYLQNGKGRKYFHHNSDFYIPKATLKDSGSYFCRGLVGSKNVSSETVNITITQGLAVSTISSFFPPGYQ
T7 sequence (Q8SPV9 24-297 limits assumed, chain 1 of 2): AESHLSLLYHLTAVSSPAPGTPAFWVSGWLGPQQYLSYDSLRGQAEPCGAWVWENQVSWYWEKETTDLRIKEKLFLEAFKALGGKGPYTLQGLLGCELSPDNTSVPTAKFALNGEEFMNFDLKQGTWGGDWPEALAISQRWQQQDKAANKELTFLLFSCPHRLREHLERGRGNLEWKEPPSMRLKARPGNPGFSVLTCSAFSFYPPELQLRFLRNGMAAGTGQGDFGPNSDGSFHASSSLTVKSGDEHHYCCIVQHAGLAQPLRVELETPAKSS
T7 sequence (Q8SPW0 21-119 limits assumed, chain 2 of 2): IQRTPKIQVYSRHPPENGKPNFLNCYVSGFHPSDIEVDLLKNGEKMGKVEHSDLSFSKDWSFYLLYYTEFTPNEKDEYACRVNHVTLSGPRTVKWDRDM
T6 sequence (O75015 17-200 limits assumed): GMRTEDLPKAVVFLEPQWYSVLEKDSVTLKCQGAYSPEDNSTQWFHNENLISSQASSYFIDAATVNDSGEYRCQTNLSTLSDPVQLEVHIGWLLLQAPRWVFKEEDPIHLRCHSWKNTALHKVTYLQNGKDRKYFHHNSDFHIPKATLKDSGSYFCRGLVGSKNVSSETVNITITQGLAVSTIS

EC50 [1]: 0.37 nM
Max FOB [1]: 16 fold over background
Kd (human FcRn [2]): 1000 nM
Kd (human FcRn [3]): 1000 nM
koff [4]: 0.11 s⁻¹ and 0.12 s⁻¹
kon [4]: 180000 M⁻¹ s⁻¹ and 190000 M⁻¹ s⁻¹
Kd [5]: 493 nM
Kd [6]: 439 nM and 453 nM and 466 nM and 465 nM
EC50 [7]: 0.83 nM
koff (cynomolgus CD16 [8]): 0.021 s⁻¹
kon (cynomolgus CD16 [8]): 76000 M⁻¹ s⁻¹
Kd (human CD16b): 6900 nM
Kd (cynomolgus FcRn [9]): 1000 nM
koff (cynomolgus CD16 [10]): 0.02 s⁻¹ and 0.021 s⁻¹
kon (cynomolgus CD16 [10]): 78000 M⁻¹ s⁻¹ and 72000 M⁻¹ s⁻¹
Kd (cynomolgus FcRn [11]): 1000 nM
koff [12]: 0.11 s⁻¹
kon [12]: 240000 M⁻¹ s⁻¹ and 230000 M⁻¹ s⁻¹
Kd (cynomolgus CD16 [13]): 261 nM
Kd (human CD16a V158 [14]): 129 nM
lysis of BJAB target cells by rested primary human NK cells, EC50 [15]: 0.06 nM
specific lysis of BAFF-R+ target cells by KHYG-1-CD16V effector cells, EC50 [15]: 0.05 nM
Kd [16]: 456 nM
Kd [17]: 520 nM
binding result (recombinant human TACI): no binding (tested: 500 nM)
EC50 [18]: 0.96 nM
Max FOB [18]: 67 fold over background
EC50 [19]: 0.27 nM
Max FOB [19]: 8 fold over background
Kd (human CD32a R131): 1500 nM and 1300 nM and 1200 nM
Kd (human CD16a V158 [20]): 145 nM
koff (human CD16a V158 [20]): 0.017 s⁻¹
kon (human CD16a V158 [20]): 130000 M⁻¹ s⁻¹
B1: AB1424/AB1612 F3′ TriNKET (bispecific antibody, human IgG1, kappa)
chain: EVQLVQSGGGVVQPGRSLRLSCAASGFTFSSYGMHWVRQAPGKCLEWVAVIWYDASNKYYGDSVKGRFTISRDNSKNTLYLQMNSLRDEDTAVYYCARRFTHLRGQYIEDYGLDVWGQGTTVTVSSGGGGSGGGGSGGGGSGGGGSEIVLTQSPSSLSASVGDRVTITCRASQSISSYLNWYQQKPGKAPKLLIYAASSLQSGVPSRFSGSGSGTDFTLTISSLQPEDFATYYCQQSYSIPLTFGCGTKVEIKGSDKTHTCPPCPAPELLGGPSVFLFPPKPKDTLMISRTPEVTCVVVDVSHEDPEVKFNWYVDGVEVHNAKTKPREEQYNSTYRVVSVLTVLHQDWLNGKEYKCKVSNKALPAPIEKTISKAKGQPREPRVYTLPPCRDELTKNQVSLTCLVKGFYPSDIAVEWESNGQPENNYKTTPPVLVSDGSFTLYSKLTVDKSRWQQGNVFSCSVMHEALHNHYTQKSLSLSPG
heavy: EVQLVESGGGLVKPGGSLRLSCAASGFTFSSYSMNWVRQAPGKGLEWVSSISSSSSYIYYADSVKGRFTISRDNAKNSLYLQMNSLRAEDTAVYYCARGAPIGAAAGWFDPWGQGTLVTVSSASTKGPSVFPLAPSSKSTSGGTAALGCLVKDYFPEPVTVSWNSGALTSGVHTFPAVLQSSGLYSLSSVVTVPSSSLGTQTYICNVNHKPSNTKVDKKVEPKSCDKTHTCPPCPAPELLGGPSVFLFPPKPKDTLMISRTPEVTCVVVDVSHEDPEVKFNWYVDGVEVHNAKTKPREEQYNSTYRVVSVLTVLHQDWLNGKEYKCKVSNKALPAPIEKTISKAKGQPREPQVCTLPPSRDELTENQVSLTCLVKGFYPSDIAVEWESNGQPENNYKTTPPVLDSDGSFFLYSWLTVDKSRWQQGNVFSCSVMHEALHNHYTQKSLSLSPG
light: DIQMTQSPSSVSASVGDRVTITCRASQGISSWLAWYQQKPGKAPKLLIYAASSLQSGVPSRFSGSGSGTDFTLTISSLQPEDFATYYCQQGVSFPRTFGGGTKVEIKRTVAAPSVFIFPPSDEQLKSGTASVVCLLNNFYPREAKVQWKVDNALQSGNSQESVTEQDSKDSTYSLSSTLTLSKADYEKHKVYACEVTHQGLSSPVTKSFNRGEC
notes: Chain S: anti-BAFF-R scFv-CH2-CH3; chain H: anti-NKG2D VH-CH1-CH2-CH3; chain L: anti-NKG2D VL-CL; also called AB1612-002
